This is an account of results in article PMC9308819 (Nature Communications, 2022).

For orientation: Kd means the free concentration of one partner at which half of the binding sites on the other are occupied at equilibrium, for simple one-to-one binding.

The labels stand for the following.
B1: Rep15, full length (natural N101D variant) [human] / Rab3A, purified, nucleotide-loaded [human] (parent complex)
chain 1: MGQKASQQLALKDSKEVPVVCEVVSEAIVHAAQKLKEYLGFEYPPSKLCPAANTLNEIFLIHFITFCQEKGVDEWLTTTKMTKHQAFLFGADWIWTFWGSDKQIKLQLAVQTLQMSSPPPVESKPCDLSNPESRVEESSWKKSRFDKLEEFCNLIGEDCLGLFIIFGMPGKPKDIRGVVLDSVKSQMVRSHLPGGKAVAQFVLETEDCVFIKELLRNCLSKKDGLREVGKVYISIL
chain 2: MASATDSRYGQKESSDQNFDYMFKILIIGNSSVGKTSFLFRYADDSFTPAFVSTVGIDFKVKTIYRNDKRIKLQIWDTAGQERYRTITTAYYRGAMGFILMYDITNEESFNAVQDWSTQIKTYSWDNAQVLLVGNKCDMEDERVVSSERGRQLADHLGFEFFEASAKDNINVKQTFERLVDVICEKMSESLDTADPAVTGAKQGPQLSDQQVPPHQDCAC

The variants in one experiment derive from B1. As to the kind of experiment: ITC.
Turning to chain 1 H84A, the Kd was 450 nM.

In a further experiment the parent is B1. Kind of experiment: ITC. This is another data set of the same source.
With chain 1 V135A, the Kd was determined as 510 nM.
